The values that follow come from the supplement of paper PMC9170038.

This series has as its system MS2 coat protein. In words: apparent KD of MS2 coat protein; designed switch direction (-1 OFF switch, 1 ON switch): -1; higher = weaker reporter binding. The gist of the method:
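An oligonucleotide input, 200 uM small-molecule ligand, or no input was present during titration of SNAP-549-labelled MS2 coat protein, which was doubled from 0.7 or 1.5 nM to 3 µM. Designed RNA switches had been transcribed on Illumina chips by stalled E. coli RNA polymerase. Apparent KD per design is the median over clusters of curves fitted to normalised cluster fluorescence.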

The mark [1] stands for this setting: Eterna round: R95, input ligand: FMN 200 uM.
Setting [2] is: Eterna round: R95, input ligand: microRNA oligo, concentration not stated.
[3] abbreviates: Eterna round: R95, input ligand: none.
The mark [4] stands for this setting: input ligand: microRNA oligo, concentration not stated.

With “AGUACUAACACGAAAGUGUUAGUACAAUAAGCUUGUGAAACAUGAGGAUCACCCAUGUCCUCUUAAGCUCGUCUUAU [salish99_TOv2_r3_047] (puzzle: Sensor v3, turn-off variant 2)”, the “apparent KD of MS2 coat protein” value was 116 nM under setting [1], 329 nM under setting [2] and 124 nM under setting [3].

As for “AGUACUAACACGAAAGUGUUAGUACAAUAAGCUUGUGUUACAUGAGGAUCACCCAUGUCCUCAUAAGCUCGUCUUAU [JL-sv3-2.14 mat747 mod] (puzzle: Sensor v3, turn-off variant 2)”, the “apparent KD of MS2 coat protein” value runs as follows: under setting [1], 100 nM; under setting [2], 48.5 nM; under setting [3], 98.1 nM.

In the case of “AGUACUAACACGAAAGUGUUAGUACCAUAAGCUUGUGAAACAUGAGGAUCACCCAUGUCCUCAUAAGCUCGUCUUAU [salish99_TOv2_r3_041] (puzzle: Sensor v3, turn-off variant 2)”, the “apparent KD of MS2 coat protein” value under setting [1] turned out to be 18.8 nM, the “apparent KD of MS2 coat protein” value under setting [2] stood at 720 nM and the “apparent KD of MS2 coat protein” value under setting [3] is 19.5 nM.

As to “AGUACUAACACGAAAGUGUUAGUACUAUAAGCUUGUGAUACAUGAGGAUCACCCAUGUCCUCAUAAGCUCGUCUUAU [Mat - Sensor v3 - Turn-off var 2 - D101] (Eterna round: R96, puzzle: Sensor v3, turn-off variant 2)”, the “apparent KD of MS2 coat protein” value was found to be 21.1 nM (input ligand: FMN 200 uM), 477 nM under setting [4] and 21.7 nM (input ligand: none).

For the sequence “AGUACUAACACGAAAGUGUUAGUACUAUAAGCUUGUGAUACAUGAGGAUCACCCAUGUCCUCAUAAGCUCGUCUUAU [Mat - Sensor v3 - Turn-off var 2 - D101] (puzzle: Sensor v3, turn-off variant 2)”, the “apparent KD of MS2 coat protein” value by setting is: under setting [1], 19 nM; under setting [2], 1820 nM; under setting [3], 19.6 nM.

“AGUACUAACACGAAUGUGUUAGUACAAUAAGCUUGUGAAACAUGAGGAUCACCCAUGUCCUCAUAAGCUCGUCUUAU [salish99_TOv2_r3_032] (puzzle: Sensor v3, turn-off variant 2)”: the “apparent KD of MS2 coat protein” value is, setting by setting: under setting [1], 16.3 nM; under setting [2], 779 nM; under setting [3], 15.5 nM.

For the sequence “AGUACUAACACGAGAGUGUUAGUACUAUAAGCUUGUGUUACAUGAGGAUCACCCAUGUCCUCAUAGGCUCGUCUUAA [Mat - Sensor v3 - Turn-off var 2 - D82] (puzzle: Sensor v3, turn-off variant 2)”, the “apparent KD of MS2 coat protein” value was found to be 75.8 nM under setting [1], 75.5 nM under setting [2] and 81.4 nM under setting [3].

Take “AGUACUAACACGAUAGUGUUAGUACAAUAAGCUUGUGUUACAUGAGGAUCACCCAUGUCCUCAUAAGCUCGUCUUAA [Mat - Sensor v3 - Turn-off var 2 - D59] (puzzle: Sensor v3, turn-off variant 2)”: the “apparent KD of MS2 coat protein” value runs as follows: under setting [1], 44.3 nM; under setting [2], 594 nM; under setting [3], 35.3 nM.

On to “AGUACUAACACGCCAGUGUUAGUACAAUAAGCUUGUGAAACAUGAGGAUCACCCAUGUCCUCAUAAGCUCGUCUUAU [salish99_TOv2_r3_028] (puzzle: Sensor v3, turn-off variant 2)”, for which the “apparent KD of MS2 coat protein” value reads like this: under setting [1], 16.9 nM; under setting [2], 677 nM; under setting [3], 15.1 nM.

Take “AGUACUAUCACGAAAGUGAUAGUACAAAAUAACAAGUGAACAUGAGGAUCACCCAUGUCCUCAUUUGCUCGUCUUAU [Sensor 3 - 18] (puzzle: Sensor v3, turn-off variant 2)”: the “apparent KD of MS2 coat protein” value by setting is: under setting [1], 418 nM; under setting [2], 925 nM; under setting [3], 421 nM.

Regarding “AGUACUAUGCGAGCUGACUUGCGUAGUGCAGCAGGUGGAACAUGAGGAUCACCCAUGUCCUCAUUUGCUCGUCUUAA [Mat - Sensor v3 - Turn-off var 2 - D5] (puzzle: Sensor v3, turn-off variant 2)”, the “apparent KD of MS2 coat protein” value under setting [1] worked out at 27.4 nM, the “apparent KD of MS2 coat protein” value under setting [2] was determined as 109 nM and the “apparent KD of MS2 coat protein” value under setting [3] was determined as 29.8 nM.

As for “AGUACUAUGCGUGCUGACAUGCGUAGUGCAGCAGGUGUUACAUGAGGAUCACCCAUGUCCUCAUUUGCUCGUCUUAU [Mat - Sensor v3 - Turn-off var 2 - D15] (puzzle: Sensor v3, turn-off variant 2)”, the “apparent KD of MS2 coat protein” value stood at 75.7 nM under setting [1], 79.2 nM under setting [2] and 80.4 nM under setting [3].

On to “AGUCAGAGAGGAUAUACAUGGGAAAAAAAAGUAAGAUCCCUACAUGAGGAUCACCCAUGUAGAAGGCUCUGACA [Ex2 Design 139: Sub-opt 3] (Eterna round: R96, puzzle: Exclusion 2)”, for which the “apparent KD of MS2 coat protein” value under setting [4] stood at 17.3 nM.

In the case of “AGUCGAAAGACCCACAUGGACAUGAGGAUCACCCAUGUGCAAGCCUUUUGCUCGUCAGCUAGGUCAAAAGACCUAGC [JL Omei mod 1] (Eterna round: R97, puzzle: Sensor, turn-off variant 1)”, the “apparent KD of MS2 coat protein” value reads like this: (input ligand: FMN 200 uM) 655 nM; (input ligand: none) 813 nM.

For “AGUCUGCGAGGAUAUACAUGAGGAUCACCCAUGUGCGAAGAACUAGUGAGGUCGAUUGGUAGAAGGCGCGGACA [Mat - Exclusion 3 - Mod of JL D88] (puzzle: Exclusion 3)”, the “apparent KD of MS2 coat protein” value under setting [2] is 241 nM.

Take “AGUGCGUAUGUGAGGAUAUGCUGGUCCUUGGCUCGGCAGAAGGCACAUGAGGAUCACCCAUGUGGUGUCGUACC [salish99_Bmod_ex4_059] (puzzle: Brourd's mod of Exclusion 4)”: the “apparent KD of MS2 coat protein” value under setting [2] was determined as 25 nM.

Consider “AGUGCGUAUGUGAGGAUAUGCUGGUCCUUGGCUCGGCAGAAGGCACAUGAGGAUCACCCAUGUGGUGUCGUACU [salish99_Bmod_ex4_066] (puzzle: Brourd's mod of Exclusion 4)”, for which the “apparent KD of MS2 coat protein” value under setting [2] worked out at 148 nM.

“AGUGCUGCAGGAUAUUCUAUUAAUUACAUGAGGAUCACCCAUGUGAAUGGACAAGGGUGUGAAGAAGGGUGGUGCG [Omei Ex5 A17h] (Eterna round: R97, puzzle: Exclusion 5)”: the “apparent KD of MS2 coat protein” value is 375 nM (input ligand: FMN 200 uM) and 605 nM (input ligand: none).

Consider “AGUGCUGGCGCGUCGGUGUUGGUACAAUAAGCUUGUGAAACAUGAGGAUCACCCAUGUCCUCAUAAGCUCGUCUUAU [salish99_TOv2_r2_084] (puzzle: Sensor v3, turn-off variant 2)”, for which the “apparent KD of MS2 coat protein” value is, setting by setting: under setting [1], 17.6 nM; under setting [2], 553 nM; under setting [3], 16.9 nM.

With “AGUGGGCUAGGAUAUCGAUGAACUCACAUGAGGAUCACCCAUGUGUCUUCGGUGGGCGCGCGAGAAGGAGUGAGAU [Belaange] (puzzle: Exclusion 5)”, the “apparent KD of MS2 coat protein” value under setting [1] was determined as 63.6 nM, the “apparent KD of MS2 coat protein” value under setting [2] was 26.9 nM and the “apparent KD of MS2 coat protein” value under setting [3] was determined as 37.9 nM.

For “AGUGUGUGGCAGGAUAUGCGAUUUAUAGGUGAAGCAGAAGGGUCUACAUGAGGAUCACCCAUGUGUGCGGUUGA [Ex6 #21] (Eterna round: R97, puzzle: Exclusion 6)”, the “apparent KD of MS2 coat protein” value (input ligand: FMN 200 uM) stood at 318 nM and the “apparent KD of MS2 coat protein” value (input ligand: none) is 160 nM.

On to “AGUUAGAUAGGAUAUGCCCGAGAUAACAUGAGGAUCACCCAUGUGACCGAAUCUAUUCUAGCAGAAGGGUUUAGGA [Mod of ViennaUCT 18 - Jieux - Exclusion 5] (Eterna round: R97, puzzle: Exclusion 5)”, for which the “apparent KD of MS2 coat protein” value (input ligand: FMN 200 uM) was determined as 23.6 nM and the “apparent KD of MS2 coat protein” value (input ligand: none) stood at 31.3 nM.

Take “AGUUGGCGAGGAUAUACAUGAGGAUCACCCAUGUGAAAUCCAAGUGAGGAAAUGAAAAGUAGAAGGCGCUGACA [Mod of Mat 23 - Jieux - Exclusion 3] (Eterna round: R97, puzzle: Exclusion 3)”: the “apparent KD of MS2 coat protein” value was found to be 50 nM (input ligand: FMN 200 uM) and 20.8 nM (input ligand: none).

For the sequence “AGUUGGCGAGGAUAUACAUGAGGAUCACCCAUGUGAGAGAAUAAAGUGAGGAAGAAAAGUAGAAGGCGCUGACG [Mat - Exclusion 3 - Mod of Salish D7] (puzzle: Exclusion 3)”, the “apparent KD of MS2 coat protein” value came out at 61.1 nM under setting [1], 52 nM under setting [2] and 53.8 nM under setting [3].

As for “AUAAAAGCAGGAUAUGCGCGGUGUGAUGCCGCAUGCUCGUCACAUGAGGAUCACCCAUGUAGAAGGGCUAAAUG [Diramadidi] (Eterna round: R97, puzzle: Exclusion 2)”, the “apparent KD of MS2 coat protein” value runs as follows: (input ligand: FMN 200 uM) 19.3 nM; (input ligand: none) 15.6 nM.

As to “AUAAAGAACUCAGGAUAUUAGAGAAACGGACAUGAGGAUCACCCAUGUGCGCCUGAUGCCGAGAAUAAGAAGGGAGAAUAGAAA [Rearbi] (Eterna round: R96, puzzle: Exclusion NG 2)”, the “apparent KD of MS2 coat protein” value by setting is: (input ligand: FMN 200 uM) 131 nM; under setting [4], 16.7 nM; (input ligand: none) 27.4 nM.

As for “AUAAAGCAAGCAUGAUCCCACAUGAGGAUCACCCAUGUGUUCGUCUUAUAGGCUGCUGAGGCUUUUGCCUCGGUGGC [LRO Sensor-off var1-06 loose mod of D91 from Mat747] (Eterna round: R97, puzzle: Sensor, turn-off variant 1)”, the “apparent KD of MS2 coat protein” value worked out at 69 nM (input ligand: FMN 200 uM) and 67.9 nM (input ligand: none).

As to “AUAAAUCAUGUAGGAUAUGCGUGGCGAAGCUAUGCAGAAGGACAUGAGGAUCACCCAUGUGCUUCCGUCUGCGUACAGACGGAA [Mat - Exclusion NG 1 - Mod of JL - D35] (Eterna round: R96, puzzle: Exclusion NG 1)”, the “apparent KD of MS2 coat protein” value is 64.8 nM (input ligand: FMN 200 uM), 228 nM under setting [4] and 190 nM (input ligand: none).

As for “AUAAGCUUUUAAAUCCUUAACAUGAGGAUCACCCAUGUUCGUCUUAUGAUGGUCUGAUCCCUGAGGAUCGGACCGUU [JL-sv1-2.03 Brourd Mod] (puzzle: Sensor v3, turn-off variant 1)”, the “apparent KD of MS2 coat protein” value is, setting by setting: under setting [1], 29.2 nM; under setting [2], 95 nM; under setting [3], 30.9 nM.
